From publication PMC11662670, “Selective recognition of RNA G-quadruplex in vitro and in cells by L-aptamer–D-oligonucleotide conjugate”

Target: T1, DHX36 (UniProt Q9H2U1 1-1008)
T1 sequence: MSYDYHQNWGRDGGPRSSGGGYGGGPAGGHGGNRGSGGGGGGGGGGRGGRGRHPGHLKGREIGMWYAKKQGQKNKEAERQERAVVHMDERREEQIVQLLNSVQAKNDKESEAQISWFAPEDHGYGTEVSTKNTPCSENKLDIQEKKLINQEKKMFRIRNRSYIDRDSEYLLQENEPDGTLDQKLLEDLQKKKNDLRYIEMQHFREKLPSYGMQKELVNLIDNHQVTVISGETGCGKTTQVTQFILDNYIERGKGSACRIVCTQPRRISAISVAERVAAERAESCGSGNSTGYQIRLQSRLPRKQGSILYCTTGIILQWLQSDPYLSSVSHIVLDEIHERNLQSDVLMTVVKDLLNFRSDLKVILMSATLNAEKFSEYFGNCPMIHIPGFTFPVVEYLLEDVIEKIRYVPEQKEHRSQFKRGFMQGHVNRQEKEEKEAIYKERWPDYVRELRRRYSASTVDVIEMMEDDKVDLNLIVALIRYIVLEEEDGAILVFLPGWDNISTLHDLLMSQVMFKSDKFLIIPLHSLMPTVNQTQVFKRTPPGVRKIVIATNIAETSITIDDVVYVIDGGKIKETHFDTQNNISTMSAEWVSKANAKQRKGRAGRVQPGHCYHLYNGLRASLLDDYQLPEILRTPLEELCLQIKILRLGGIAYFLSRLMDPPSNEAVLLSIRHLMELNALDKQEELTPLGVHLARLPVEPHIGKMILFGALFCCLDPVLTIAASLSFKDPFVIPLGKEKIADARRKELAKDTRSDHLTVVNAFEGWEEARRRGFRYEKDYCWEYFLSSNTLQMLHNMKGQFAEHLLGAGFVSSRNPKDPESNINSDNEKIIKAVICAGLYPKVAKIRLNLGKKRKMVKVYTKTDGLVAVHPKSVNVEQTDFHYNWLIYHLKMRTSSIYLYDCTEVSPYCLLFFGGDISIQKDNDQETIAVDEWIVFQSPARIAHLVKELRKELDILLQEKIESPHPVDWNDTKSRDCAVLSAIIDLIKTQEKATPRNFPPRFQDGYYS
Test: EMSA; EMSA: 150 mM KCl, 1 mM MgCl2, 25 mM Tris-HCl pH 7.5, 8% sucrose, 30 min at 37 C; gel at 4 C. Pull-down: same buffer without sucrose, 4 C
Settings: protein: commercial; label: 5' HEX; intramolecular rG4 with 3' single-stranded flank

B1: HEX_APP rG4 wt region (structured_RNA)
RNA: GGGGCGGGUGGGGAGGGGUGCUCUGCUGGUCUUCAAUU
  Kd: 51.3 ± 10.1 nM
